The subject of one assay is PAR polymer. The assay can be described thus: EMSA for PAR binding. From the text:
PAR binding is specified by a sequence of approximately 20 amino acids containing N-terminal basic amino acids and a C-terminal region containing alternating hydrophobic and basic amino acids (FIG. 24). Iduna contains a predicted PAR polymer binding sequence within amino acids 144-167 of the WWE domain (FIGS. 1 and 24). The PAR-binding domain was defined by comparing to the consensus sequence for PAR-binding and the known PAR binding domain of Histone 3 (FIG. 24). HEK293 cells were transfected with GFP, GFP-Iduna lacking the WWE domain (GFP-IdunaΔWWE), GFP-Iduna lacking the RF domain (GFP-IdunaARF), and full-length GFP-Iduna, followed by immunoprecipitation with a GFP antibody. […] Only GFP-Iduna-ARF and full-length GFP-Iduna can co-immunoprecipiate PAR binding proteins (FIG. 25). The critical amino acids in the PAR binding domain, 156Y and 157R, were mutated to 156A and 157A in full length Iduna (Iduna-YRAA). […] Similar results are obtained with a biotin-tagged PAR polymer followed by detection with an anti-biotin antibody (FIG. 26). […] Histone H3 is a known PAR binding protein and was used as a positive control for the PAR overlay assay. […] An assay based on electrophorectic mobility shift (EMSA) for PAR binding was developed to monitor PAR polymer binding to Iduna. […]
In general terms: Mobility shift assays separate free from complexed probe on a gel.

The test system of the next assay is primary cortical neurons. The assay can be described thus: Mitochondrial membrane potential (TMRM live imaging). The class given is cell-based, mouse. The note with it: TMRM fluorescence, NMDA 500 μM. The procedure:
Mitochondrial Membrane Potential (Δψm): TMRM was used to determine Δψm. Mouse neuronal cultures were loaded with TMRM (100 nM) for 20 min. Thereafter, live-cell imaging was captured using LSM 510 Live Confocal microscope (Carl Zeiss, Germany) for 20 minutes and fluorescence values for TMRM were calculated using LSM 510 confocal software (Carl Zeiss). Following 50-100 seconds base-line stabilization, NMDA (500 μM for 5 min) was directly perfused during image acquisition on the confocal microscopic stage using a peristaltic pump (Gilson). Live images were acquired at an interval of 20 s using a low laser power to avoid excessive bleaching. Due to spectral overlap with GFP, plasma membrane potential could not be determined.

The subject of another assay is MCF7 cells. Description: Cell cycle analysis after γ-irradiation. The class given is cell-based, human. The note with it: γ-irradiation 2 Gy. The protocol:
Cell cycle analysis. Studies were performed to evaluate the cell cycle response of each stable cell lines. Cells were plated onto 150 mm culture dishes and cultured for 24 h at 37° C. with fresh growth medium. Following replacement of growth medium, cells were irradiated at 2 Gy with a Gammacell irradiator. After 12 h, cells were washed once with PBS and incubated with PBS containing 0.2% EDTA for 5 min at 37° C., thereafter scraped with fresh growth medium and collected at 500×g at 4° C. Collected cells were washed once with ice cold PBS and then fixed with 70% ethanol. Cells were washed once with PBS containing 1% FBS and resuspended into propidium iodide (PI) staining buffer (PBS, pH 7.4, 50 μg/ml PI, 1% FBS, 100 μg/ml RNase) for 30 min at 37° C. Cells were monitored for DNA content by a flow cytometry (BD Biosciences) and then data were analyzed with FlowJo using Dean-Jett-Fox model for the quantification of each cell cycle phase.

B1: Iduna: novel NMDA-induced cell survival protein, PAR-dependent E3 ligase; 359 amino acids (protein)
chain: MEMAGCGEIDHSINMLPTNKKANESCSNTAPSLTVPECAICLQTCVHPVSLPCKHVFCYLCVKGASWLGKRCALCRQEIPEDFLDKPTLLSPEELKAASRGNGEYAWYYEGRNGWWQYDERTSRELEDAFSKGKKNTEMLIAGFLYVADLENMVQYRRNEHGRRRKIKRDIIDIPKKGVAGLRLDCDTNTVNLARESSADGADSGSAQTGASVQLAVPSSTRPLTSVDGQLTSPVTPSPDAGISLEDSFAHLQLSGDSIAERSHRGEGEEDHESPSSGRVPDTSVEETESDASSDSEDAPVVVAQHSLTQQRPLVPNGNQTVADQSDRSGTDRSVAGGGTMSVNVRSRRPDGQCTVIEV
Turning to B1, the “PAR polymer mobility shift” value with PAR polymer is reported as “retards the mobility shift of PAR polymer”. For the same molecule, the “NMDA induced loss of Δψm” value in the assay on primary cortical neurons is on record as “prevents NMDA induced loss of Δψm”. Also, the “cell cycle arrest and cell survival” value in the assay with MCF7 cells is “rescues cells from G1 arrest in the cell cycle and promotes cell survival”.
